Laboratory results as given in patent publication US20030087317.

Experiments:
[1] = tested on: myelin basic protein
[2] = tested on: histone

human NIM1 kinase-GST (recombinant Nim1-GST, expressed in Sf21 insect cells from pVL1392/GST-NIM1), sequence (chain, as listed by the source): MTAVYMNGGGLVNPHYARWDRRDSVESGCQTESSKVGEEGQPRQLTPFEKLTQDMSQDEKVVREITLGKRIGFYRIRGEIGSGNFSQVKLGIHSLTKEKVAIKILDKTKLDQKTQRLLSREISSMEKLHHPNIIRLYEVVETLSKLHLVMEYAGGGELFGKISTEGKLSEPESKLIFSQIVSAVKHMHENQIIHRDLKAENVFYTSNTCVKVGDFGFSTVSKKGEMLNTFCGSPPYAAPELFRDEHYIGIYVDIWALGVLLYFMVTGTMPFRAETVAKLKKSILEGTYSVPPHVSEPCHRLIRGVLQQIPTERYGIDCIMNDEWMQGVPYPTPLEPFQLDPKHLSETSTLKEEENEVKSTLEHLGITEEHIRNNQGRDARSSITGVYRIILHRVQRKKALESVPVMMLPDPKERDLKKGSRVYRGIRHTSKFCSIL

Substance: human NIM1 kinase-GST (recombinant Nim1-GST, expressed in Sf21 insect cells from pVL1392/GST-NIM1)
- phosphorylation of substrate in in vitro kinase assay ([gamma-32P]-ATP, SDS-PAGE, autoradiography) [1]: phosphorylated its substrates MBP, lane 2, and HIST. 1, lane 4
- phosphorylation of substrate in in vitro kinase assay ([gamma-32P]-ATP, SDS-PAGE, autoradiography) [2]: phosphorylated its substrates MBP, lane 2, and HIST. 1, lane 4
